± gives the uncertainty stated by the source.
B1: Homeobox protein cut-like 1, residues 941 to 1008; numbered along this chain, P39880 (parent)
chain: QEVDTIELTRQVKEKLAKNGICQRIFGEKVLGLSQGSVSDMLSRPKPWSKLTQKGREPFIRMQLWLNG

Variants of: B1
Test: abundance fitness (aPCA) (normalised: wild type 0, dead -1); higher = more abundant; growth selection in yeast, the domain comes from the species named
Conditions: Homo sapiens

Row | Variant | abundance fitness
1 | QETDTIELTRQVKEKLAKNGICQRIFGEKVLGLSQGSVSDMLSRPKPWSKLTQKGREPFIRMQLWLNG | -0.112 ± 0.085
2 | QEHDTIELTRQVKEKLAKNGICQRIFGEKVLGLSQGSVSDMLSRPKPWSKLTQKGREPFIRMQLWLNG | -0.199 ± 0.12
3 | QEIDTIELTRQVKEKLAKNGICQRIFGEKVLGLSQGSVSDMLSRPKPWSKLTQKGREPFIRMQLWLNG | 0.19 ± 0.091
4 | QEQDTIELTRQVKEKLAKNGICQRIFGEKVLGLSQGSVSDMLSRPKPWSKLTQKGREPFIRMQLWLNG | -0.032 ± 0.076
5 | CEVDTIELTRQVKEKLAKNGICQRIFGEKVLGLSQGSVSDMLSRPKPWSKLTQKGREPFIRMQLWLNG | -0.062 ± 0.13
6 | VEVDTIELTRQVKEKLAKNGICQRIFGEKVLGLSQGSVSDMLSRPKPWSKLTQKGREPFIRMQLWLNG | -0.201 ± 0.088
7 | MEVDTIELTRQVKEKLAKNGICQRIFGEKVLGLSQGSVSDMLSRPKPWSKLTQKGREPFIRMQLWLNG | 0.09 ± 0.081
8 | KEVDTIELTRQVKEKLAKNGICQRIFGEKVLGLSQGSVSDMLSRPKPWSKLTQKGREPFIRMQLWLNG | 0.076 ± 0.065
9 | YEVDTIELTRQVKEKLAKNGICQRIFGEKVLGLSQGSVSDMLSRPKPWSKLTQKGREPFIRMQLWLNG | -0.34 ± 0.13
10 | EEVDTIELTRQVKEKLAKNGICQRIFGEKVLGLSQGSVSDMLSRPKPWSKLTQKGREPFIRMQLWLNG | 0.214 ± 0.091
11 | PEVDTIELTRQVKEKLAKNGICQRIFGEKVLGLSQGSVSDMLSRPKPWSKLTQKGREPFIRMQLWLNG | -0.277 ± 0.086
12 | HEVDTIELTRQVKEKLAKNGICQRIFGEKVLGLSQGSVSDMLSRPKPWSKLTQKGREPFIRMQLWLNG | -0.673 ± 0.14
13 | REVDTIELTRQVKEKLAKNGICQRIFGEKVLGLSQGSVSDMLSRPKPWSKLTQKGREPFIRMQLWLNG | -0.046 ± 0.052
14 | NEVDTIELTRQVKEKLAKNGICQRIFGEKVLGLSQGSVSDMLSRPKPWSKLTQKGREPFIRMQLWLNG | -0.412 ± 0.11
15 | LEVDTIELTRQVKEKLAKNGICQRIFGEKVLGLSQGSVSDMLSRPKPWSKLTQKGREPFIRMQLWLNG | -0.218 ± 0.055
16 | AEVDTIELTRQVKEKLAKNGICQRIFGEKVLGLSQGSVSDMLSRPKPWSKLTQKGREPFIRMQLWLNG | 0.167 ± 0.1

Row | Variant | abundance fitness
17 | SEVDTIELTRQVKEKLAKNGICQRIFGEKVLGLSQGSVSDMLSRPKPWSKLTQKGREPFIRMQLWLNG | 0.045 ± 0.076
18 | FEVDTIELTRQVKEKLAKNGICQRIFGEKVLGLSQGSVSDMLSRPKPWSKLTQKGREPFIRMQLWLNG | -0.088 ± 0.2
19 | GEVDTIELTRQVKEKLAKNGICQRIFGEKVLGLSQGSVSDMLSRPKPWSKLTQKGREPFIRMQLWLNG | 0.06 ± 0.086
20 | TEVDTIELTRQVKEKLAKNGICQRIFGEKVLGLSQGSVSDMLSRPKPWSKLTQKGREPFIRMQLWLNG | -0.038 ± 0.076
21 | QEVITIELTRQVKEKLAKNGICQRIFGEKVLGLSQGSVSDMLSRPKPWSKLTQKGREPFIRMQLWLNG | -0.503 ± 0.095
22 | QEVCTIELTRQVKEKLAKNGICQRIFGEKVLGLSQGSVSDMLSRPKPWSKLTQKGREPFIRMQLWLNG | -0.243 ± 0.12
23 | QEVPTIELTRQVKEKLAKNGICQRIFGEKVLGLSQGSVSDMLSRPKPWSKLTQKGREPFIRMQLWLNG | -0.265 ± 0.062
24 | QEVFTIELTRQVKEKLAKNGICQRIFGEKVLGLSQGSVSDMLSRPKPWSKLTQKGREPFIRMQLWLNG | -0.35 ± 0.072
25 | QEVLTIELTRQVKEKLAKNGICQRIFGEKVLGLSQGSVSDMLSRPKPWSKLTQKGREPFIRMQLWLNG | -0.572 ± 0.048
26 | QEVQTIELTRQVKEKLAKNGICQRIFGEKVLGLSQGSVSDMLSRPKPWSKLTQKGREPFIRMQLWLNG | -0.328 ± 0.061
27 | QEVNTIELTRQVKEKLAKNGICQRIFGEKVLGLSQGSVSDMLSRPKPWSKLTQKGREPFIRMQLWLNG | -0.097 ± 0.067
28 | QEVATIELTRQVKEKLAKNGICQRIFGEKVLGLSQGSVSDMLSRPKPWSKLTQKGREPFIRMQLWLNG | -0.376 ± 0.05
29 | QEVHTIELTRQVKEKLAKNGICQRIFGEKVLGLSQGSVSDMLSRPKPWSKLTQKGREPFIRMQLWLNG | -0.346 ± 0.077
30 | QEVGTIELTRQVKEKLAKNGICQRIFGEKVLGLSQGSVSDMLSRPKPWSKLTQKGREPFIRMQLWLNG | -0.312 ± 0.066
31 | QEVETIELTRQVKEKLAKNGICQRIFGEKVLGLSQGSVSDMLSRPKPWSKLTQKGREPFIRMQLWLNG | -0.093 ± 0.068
32 | QEVMTIELTRQVKEKLAKNGICQRIFGEKVLGLSQGSVSDMLSRPKPWSKLTQKGREPFIRMQLWLNG | -0.153 ± 0.056
